*1 amine or outer side, *2 acyl side, *3 side chain or, on linkers, in order; H or OH if unused. Bridges are numbered along the chain shown (N, C = ends). Primed or numbered codes have the meaning given here. Where no end group is shown, it is not given here. Side-chain parts run from the residue outwards. [ ]: non-standard residue; d: D form. The star is where a group is joined. dpeg″ = spacer —[CO(CH2)O(CH2)2O(CH2)NH]—, O=C(COCCOCN[*:1])[*:2]; dpeg = —[CO(CH2)O(CH2)2O(CH2)NH]— spacer, O=C(COCCOCN[*:1])[*:2]; C20 diacid = O=C(O)CCCCCCCCCCCCCCCCCCC(=O)*; γGlu = O=C(O)[C@H](CCC(=O)[*:2])N[*:1]; NMeE = CN[C@@H](CCC(=O)O)C(=O)O; Aib = CC(C)(N)C(=O)O
B1: Compound A14 (peptide)
peptide: YSHGTFTSDYSKYLD[Aib]KYAQK([γGlu-γGlu-C20 diacid])FV[Aib]WLEDEPSSGAPPPS-OH
modifications: N-terminus assumed
SMILES: CC(C)C[C@H](NC(=O)[C@H](Cc1ccc(O)cc1)NC(=O)[C@H](CCCCN)NC(=O)[C@H](CO)NC(=O)[C@H](Cc1ccc(O)cc1)NC(=O)[C@H](CC(=O)O)NC(=O)[C@H](CO)NC(=O)[C@@H](NC(=O)[C@H](Cc1ccccc1)NC(=O)[C@@H](NC(=O)CNC(=O)[C@H](Cc1c[nH]cn1)NC(=O)[C@H](CO)NC(=O)[C@@H](N)Cc1ccc(O)cc1)[C@@H](C)O)[C@@H](C)O)C(=O)N[C@@H](CC(=O)O)C(=O)NC(C)(C)C(=O)N[C@@H](CCCCN)C(=O)N[C@@H](Cc1ccc(O)cc1)C(=O)N[C@@H](C)C(=O)N[C@@H](CCC(N)=O)C(=O)N[C@@H](CCCCNC(=O)CC[C@H](NC(=O)CC[C@H](NC(=O)CCCCCCCCCCCCCCCCCCC(=O)O)C(=O)O)C(=O)O)C(=O)N[C@@H](Cc1ccccc1)C(=O)N[C@H](C(=O)NC(C)(C)C(=O)N[C@@H](Cc1c[nH]c2ccccc12)C(=O)N[C@@H](CC(C)C)C(=O)N[C@@H](CCC(=O)O)C(=O)N[C@@H](CC(=O)O)C(=O)N[C@@H](CCC(=O)O)C(=O)N1CCC[C@H]1C(=O)N[C@@H](CO)C(=O)N[C@@H](CO)C(=O)NCC(=O)N[C@@H](C)C(=O)N1CCC[C@H]1C(=O)N1CCC[C@H]1C(=O)N1CCC[C@H]1C(=O)N[C@@H](CO)C(=O)O)C(C)C
B2: Compound A29 (peptide)
peptide: YSHGTFTSDYSKYLD[Aib]KYAQK([γGlu-γGlu-dpeg″-C20 diacid])FVKWLEEEPSSGAPPPS-OH
modifications: lactam 24-28; N-terminus assumed
SMILES: CC(C)C[C@@H]1NC(=O)[C@H](Cc2c[nH]c3ccccc23)NC(=O)[C@@H](NC(=O)[C@@H](NC(=O)[C@H](Cc2ccccc2)NC(=O)[C@H](CCCCNC(=O)CC[C@H](NC(=O)CC[C@H](NC(=O)COCCOCNC(=O)CCCCCCCCCCCCCCCCCCC(=O)O)C(=O)O)C(=O)O)NC(=O)[C@H](CCC(N)=O)NC(=O)[C@H](C)NC(=O)[C@H](Cc2ccc(O)cc2)NC(=O)[C@H](CCCCN)NC(=O)C(C)(C)NC(=O)[C@H](CC(=O)O)NC(=O)[C@H](CC(C)C)NC(=O)[C@H](Cc2ccc(O)cc2)NC(=O)[C@H](CCCCN)NC(=O)[C@H](CO)NC(=O)[C@H](Cc2ccc(O)cc2)NC(=O)[C@H](CC(=O)O)NC(=O)[C@H](CO)NC(=O)[C@@H](NC(=O)[C@H](Cc2ccccc2)NC(=O)[C@@H](NC(=O)CNC(=O)[C@H](Cc2c[nH]cn2)NC(=O)[C@H](CO)NC(=O)[C@@H](N)Cc2ccc(O)cc2)[C@@H](C)O)[C@@H](C)O)C(C)C)CCCCNC(=O)CC[C@@H](C(=O)N[C@@H](CCC(=O)O)C(=O)N2CCC[C@H]2C(=O)N[C@@H](CO)C(=O)N[C@@H](CO)C(=O)NCC(=O)N[C@@H](C)C(=O)N2CCC[C@H]2C(=O)N2CCC[C@H]2C(=O)N2CCC[C@H]2C(=O)N[C@@H](CO)C(=O)O)NC(=O)[C@H](CCC(=O)O)NC1=O
B3: Compound A13 (peptide)
peptide: YSHGTFTSDYSKYLDK([γGlu-γGlu-C20 diacid])KYAQEFV[Aib]WLEDEPSSGAPPPS-OH
modifications: N-terminus assumed
SMILES: CC(C)C[C@H](NC(=O)[C@H](Cc1ccc(O)cc1)NC(=O)[C@H](CCCCN)NC(=O)[C@H](CO)NC(=O)[C@H](Cc1ccc(O)cc1)NC(=O)[C@H](CC(=O)O)NC(=O)[C@H](CO)NC(=O)[C@@H](NC(=O)[C@H](Cc1ccccc1)NC(=O)[C@@H](NC(=O)CNC(=O)[C@H](Cc1c[nH]cn1)NC(=O)[C@H](CO)NC(=O)[C@@H](N)Cc1ccc(O)cc1)[C@@H](C)O)[C@@H](C)O)C(=O)N[C@@H](CC(=O)O)C(=O)N[C@@H](CCCCNC(=O)CC[C@H](NC(=O)CC[C@H](NC(=O)CCCCCCCCCCCCCCCCCCC(=O)O)C(=O)O)C(=O)O)C(=O)N[C@@H](CCCCN)C(=O)N[C@@H](Cc1ccc(O)cc1)C(=O)N[C@@H](C)C(=O)N[C@@H](CCC(N)=O)C(=O)N[C@@H](CCC(=O)O)C(=O)N[C@@H](Cc1ccccc1)C(=O)N[C@H](C(=O)NC(C)(C)C(=O)N[C@@H](Cc1c[nH]c2ccccc12)C(=O)N[C@@H](CC(C)C)C(=O)N[C@@H](CCC(=O)O)C(=O)N[C@@H](CC(=O)O)C(=O)N[C@@H](CCC(=O)O)C(=O)N1CCC[C@H]1C(=O)N[C@@H](CO)C(=O)N[C@@H](CO)C(=O)NCC(=O)N[C@@H](C)C(=O)N1CCC[C@H]1C(=O)N1CCC[C@H]1C(=O)N1CCC[C@H]1C(=O)N[C@@H](CO)C(=O)O)C(C)C

The binders below were run against human GLP-1 receptor (GLP-1R) (human, UniProt P43220 24-463) (assay: cell-based or functional assay).
Sequence of human GLP-1 receptor (GLP-1R) (P43220 24-463): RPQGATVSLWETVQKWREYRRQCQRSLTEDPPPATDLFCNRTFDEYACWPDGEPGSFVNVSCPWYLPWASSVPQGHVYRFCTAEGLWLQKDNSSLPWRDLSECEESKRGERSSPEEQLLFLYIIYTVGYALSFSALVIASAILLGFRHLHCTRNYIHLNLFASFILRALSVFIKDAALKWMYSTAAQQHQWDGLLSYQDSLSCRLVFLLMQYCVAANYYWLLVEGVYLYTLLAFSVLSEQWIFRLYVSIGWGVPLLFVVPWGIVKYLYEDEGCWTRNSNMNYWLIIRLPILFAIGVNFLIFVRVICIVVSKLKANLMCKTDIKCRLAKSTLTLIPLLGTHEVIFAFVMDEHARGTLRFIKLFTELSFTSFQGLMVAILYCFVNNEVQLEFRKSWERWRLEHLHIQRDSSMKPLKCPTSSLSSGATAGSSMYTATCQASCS

Binder | pEC50, cAMP accumulation
YSHGTFTSDYSKYLDK([γGlu-γGlu-dpeg-C20 diacid])KYAQEFV[Aib]WLESEPSSGAPPPS-OH [Compound A19] | < 9 pEC50 (-log M)
B1 | < 9 pEC50 (-log M)
YSHGTFTSDYSKYLDK([γGlu-γGlu-dpeg-C20 diacid])KYAQEFV[Aib]WLEEEPSSGAPPPS-OH [Compound A15] | < 9 pEC50 (-log M)
YSHGTFTSDYSKYLDK([γGlu-γGlu-dpeg-C20 diacid])KYAQEFV[Aib]WLEQEPSSGAPPPS-OH [Compound A17] | < 9 pEC50 (-log M)
YSHGTFTSDYSKYLDK([γGlu-γGlu-dpeg-C20 diacid])KYAQEFV[Aib]WLEKEPSSGAPPPS-OH [Compound A20] | < 9 pEC50 (-log M)
B2 | < 9 pEC50 (-log M)
YSHGTFTSDYSKYLDK([γGlu-γGlu-dpeg-C20 diacid])KYAQEF[Aib]EWLEDEPSSGAPPPS-OH [Compound A8] | < 9 pEC50 (-log M)
YSHGTFTSDYSKYLDK([γGlu-γGlu-dpeg-C20 diacid])KYAKEFV[Aib]WLESEPSSGAPPPS-OH [Compound A22] | < 9 pEC50 (-log M)
B3 | < 9 pEC50 (-log M)
YSHGTFTSDYSKYLDK([γGlu-γGlu-dpeg″-C20 diacid])KYAKEFVEWLEDEPSSGAPPPS-OH (lactam 20-24) [Compound A11] | < 9 pEC50 (-log M)
YSHGTFTSDYSKYLDK([γGlu-γGlu-dpeg″-C20 diacid])KYAEEFVKWLEDEPSSGAPPPS-OH (lactam 20-24) [Compound A12] | < 9 pEC50 (-log M)
YSHGTFTSDYSKYLDK([γGlu-γGlu-dpeg-C20 diacid])KYAQEF[Aib]KWLEDEPSSGAPPPS-OH [Compound A9] | < 9 pEC50 (-log M)
YSHGTFTSDYSKYLDK([γGlu-γGlu-dpeg-C20 diacid])KYAEEFV[Aib]WLESEPSSGAPPPS-OH [Compound A23] | < 9 pEC50 (-log M)
YSHGTFTSDYSKYLDK([γGlu-γGlu-dpeg-C20 diacid])KYAQEFV[Aib]WLE[NMeE]EPSSGAPPPS-OH [Compound A18] | < 9 pEC50 (-log M)
YSHGTFTSDYSKYLDK([γGlu-γGlu-dpeg-C20 diacid])KYAQEFV[Aib]WLENEPSSGAPPPS-OH [Compound A16] | < 9 pEC50 (-log M)
YSHGTFTSDYSKYLDK([γGlu-γGlu-dpeg-C20 diacid])KYAQEF[Aib]SWLEDEPSSGAPPPS-OH [Compound A10] | < 9 pEC50 (-log M)
YSHGTFTSDYSKYLDK([γGlu-γGlu-dpeg″-C20 diacid])KYAEKFVKWLEDEPSSGAPPPS-OH (lactam 20-24) [Compound A21] | < 9 pEC50 (-log M)

The binders below were run against human Glucagon receptor (GCGR) (human, UniProt P47871 26-477) (assay: cell-based or functional assay).

Binder | pEC50, cAMP accumulation
YSHGTFTSDYSKYLD[Aib]K([γGlu-γGlu-dpeg-C20 diacid])YAQEFV[Aib]WLEDEPSSGAPPPS-OH [Compound A3] | 12.5 pEC50 (-log M)
YSHGTFTSDYSKYLDK([γGlu-γGlu-dpeg-C20 diacid])KYAQEFV[Aib]WLEDEPSSGAPPPS-OH [Compound A2] | 12.5 pEC50 (-log M)
YSHGTFTSDYSKYLK([γGlu-γGlu-dpeg-C20 diacid])[Aib]KYAQEFV[Aib]WLEDEPSSGAPPPS-OH [Compound A1] | 11.5 pEC50 (-log M)
YSHGTFTSDYSKYLDK([γGlu-γGlu-dpeg-C20 diacid])KYAQEFV[Aib]WLESEPSSGAPPPS-OH [Compound A19] | 12.1 pEC50 (-log M)
B1 | 11.2 pEC50 (-log M)
YSHGTFTSDYSKYLDK([γGlu-γGlu-dpeg-C20 diacid])KYAQEFV[Aib]WLEEEPSSGAPPPS-OH [Compound A15] | 12.1 pEC50 (-log M)
YSHGTFTSDYSKYLDK([γGlu-γGlu-dpeg-C20 diacid])KYAQEFV[Aib]WLEQEPSSGAPPPS-OH [Compound A17] | 12.1 pEC50 (-log M)
YSHGTFTSDYSKYLDK([γGlu-γGlu-dpeg-C20 diacid])KYAQEFV[Aib]WLEKEPSSGAPPPS-OH [Compound A20] | 12.1 pEC50 (-log M)
YSHGTFTSDYSKYLDK([γGlu-γGlu-dpeg-C20 diacid])KYAQEF[Aib]EWLEDEPSSGAPPPS-OH [Compound A8] | 9.9 pEC50 (-log M)
YSHGTFTSDYSKYLDK([γGlu-γGlu-dpeg-C20 diacid])KYAKEFV[Aib]WLESEPSSGAPPPS-OH [Compound A22] | 11.7 pEC50 (-log M)
B3 | 12 pEC50 (-log M)
YSHGTFTSDYSKYLDK([γGlu-γGlu-dpeg″-C20 diacid])KYAKEFVEWLEDEPSSGAPPPS-OH (lactam 20-24) [Compound A11] | 11.7 pEC50 (-log M)
YSHGTFTSDYSKYLDK([γGlu-γGlu-dpeg″-C20 diacid])KYAEEFVKWLEDEPSSGAPPPS-OH (lactam 20-24) [Compound A12] | 11.8 pEC50 (-log M)
YSHGTFTSDYSKYLDK([γGlu-γGlu-dpeg-C20 diacid])KYAQEF[Aib]KWLEDEPSSGAPPPS-OH [Compound A9] | 10.6 pEC50 (-log M)
YSHGTFTSDYSKYLDK([γGlu-γGlu-dpeg-C20 diacid])KYAEEFV[Aib]WLESEPSSGAPPPS-OH [Compound A23] | 11.5 pEC50 (-log M)
YSHGTFTSDYSKYLD[Aib]KYAK([γGlu-γGlu-dpeg-C20 diacid])EFV[Aib]WLEDEPSSGAPPPS-OH [Compound A5] | 11.6 pEC50 (-log M)
YSHGTFTSDYSKYLDK([γGlu-γGlu-dpeg-C20 diacid])KYAQEFV[Aib]WLE[NMeE]EPSSGAPPPS-OH [Compound A18] | 10.4 pEC50 (-log M)
YSHGTFTSDYSKYLDK([γGlu-γGlu-dpeg-C20 diacid])KYAQEFV[Aib]WLENEPSSGAPPPS-OH [Compound A16] | 12.2 pEC50 (-log M)
YSHGTFTSDYSKYLDK([γGlu-γGlu-dpeg-C20 diacid])KYAQEF[Aib]SWLEDEPSSGAPPPS-OH [Compound A10] | 10.4 pEC50 (-log M)
YSHGTFTSDYSKYLD[Aib]KK([γGlu-γGlu-dpeg-C20 diacid])AQEFV[Aib]WLEDEPSSGAPPPS-OH [Compound A4] | 11.7 pEC50 (-log M)
YSHGTFTSDYSKYLDK([γGlu-γGlu-dpeg″-C20 diacid])KYAEKFVKWLEDEPSSGAPPPS-OH (lactam 20-24) [Compound A21] | 12.1 pEC50 (-log M)

From US20240228572A1 (I2O THERAPEUTICS, published 2024)
